Experimental findings from patent EP2835135A2, “Means and methods for treating pseudomonas infection” (Max-Planck-Gesellschaft zur Förderung der Wissenschaften …, priority 2013, dated 2015) are described below.

Bridge positions count the residues as written; N and C are the ends. Square brackets hold non-standard residues; d marks the D form. Ends that are not written are not given here. S5 = C=CCCC[C@](C)(N)C(=O)O

For test [1], the target named is T1, 14-3-3 (Homo sapiens, UniProt P63104).
T1 sequence (P63104 1-245): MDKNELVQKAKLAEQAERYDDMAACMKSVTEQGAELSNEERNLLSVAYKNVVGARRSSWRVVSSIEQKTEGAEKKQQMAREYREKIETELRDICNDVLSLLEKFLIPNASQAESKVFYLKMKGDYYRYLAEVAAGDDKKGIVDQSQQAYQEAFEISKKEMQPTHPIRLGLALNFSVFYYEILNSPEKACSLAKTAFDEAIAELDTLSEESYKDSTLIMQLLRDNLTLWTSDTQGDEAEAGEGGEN
Kind of test: FP competition experiment: labeled peptide preincubated with 14-3-3 and titrated with unlabeled WT peptide. Format: binding. The note with it: FITC-labeled peptide 20 nM, 14-3-3 4.0 µM, Figure 7. The text has this: The figures show: • Figure 1: (A) Schemetic representaion of ExoS' role in P. aeruginosa infection. (B) Crystal structure of 14-3-3 binding domain of ExoS bound to 14-3-3 (PDB 2002). • Figure 2: (A) Concept for an antibiotic strategy against P. aeruginosa. (B) Overlaid structures of 14-3-3 in complex with 14-3-3 binding domains of ExoS (PDB 2002) and endogenous phosphorylated sequences (PDB 1QJA, 1YWT, 2B05, 2BR9, 2BTP, 2C1J, 2C1N, 2C63, 2C74, 2NPM, 2IQV, 3LW1). • Figure 3: Alignment of 14-3-3 residues involved in inhibitor binding. • Figure 4: Dual assay for the identification of inhibitors of 14-3-3/ExoS interaction that would not affect interactions of 14-3-3 with endogenous binding parterns. L^1 and L^2 as well as L^3 and L^4 are chosen in order to allow a fluorescence polarization readout, ALPHA screen ("Amplified Luminescent Proximity Homogeneous Assay") or HRTF screen ("homogeneous time resolved fluorescence"; both ALPHA and HRTF screens are very sensitive homogeneous assay technologies that allow the screening of interactions in a proximity sensitive fashion). • Figure 5: (A) Crystal structure of ^420[…]^430 (sticks) complexed to 14-3-3 ζ ΔC (spacefill). The 2FC - F0 density is scaled to 1σ (grid). (B) Superimposition of truncated ExoS peptide (^420[…]^430) with the previously reported ExoS peptide (^416[…]^430, PDB 2002). […]

Test [2] deals with T1, 14-3-3. In words: Fluorescence polarization (FP) assay: fluorescein-labeled peptides titrated with unlabeled 14-3-3 protein. The test is classed as binding. The note with it: three cross-link architectures (C8-linker), Figure 6B. In general terms: Polarisation of emitted light reports the rotation of a fluorescent probe.
From the text: A fluorescence polarization (FP) assay was used to determine the affinity of fluorescein-labeled truncated versions of this peptide to 14-3-3 (Table 1). […] The labeled peptides were titrated with unlabeled 14-3-3 protein.
The binding affinities were again determined using FP.
The binding affinity of the non-classic cross-linked peptides was investigated using FP (Figure 6C).

As to `CC(C)C[C@H](NC(=O)CNC(=O)[C@@H](N)CCC(N)=O)C(=O)N[C@@H](CC(C)C)C(=O)N[C@@H](CC(=O)O)C(=O)N[C@@H](C)C(=O)N[C@@H](CC(C)C)C(=O)N[C@@H](CC(=O)O)C(=O)N[C@@H](CC(C)C)C(=O)N[C@@H](C)C(=O)N[C@@H](CO)C(=O)O`, the “displacement of the labeled peptide by unlabeled WT peptide” value in test [1] is reported as “displacement by unlabeled WT peptide”.

Turning to “α cross-linked peptide: ExoS 11-mer with α cross-link (i,i+4): residues Leu426 and Leu422 replaced with S5, C8-linker (QG[S5]LDA[S5]DLAS; staple 3-7)”, the “affinity for 14-3-3 compared to the starting sequence (WT)” value in test [2] is “significantly decreased binding affinity”.

“γ cross-linked peptide: ExoS 11-mer with γ cross-link (i,i+3) at positions Leu426 and Leu423 (R5 and S5, respectively), C8-linker (QGLXDAXDLAS; non-natural residues)”: the “affinity for 14-3-3 compared to the starting sequence (WT)” value in test [2] is recorded as “significantly decreased binding affinity”.
